Experimental data from the supplement of paper PMC5998384.

How the values were obtained:
HeLa Kyoto [1] = experiment: solubility in G1/S (NP-40 vs SDS abundance) (log2 ratio); higher = more soluble; settings: cell cycle stage: G1/S
HeLa Kyoto [2] = experiment: thermal stability score vs G1/S (z-score of summed log2 fold changes over temperatures); higher = more thermally stable than in G1/S
HeLa Kyoto [3] = experiment: solubility change mitosis vs G1/S (difference of NP-40 vs SDS log2 ratios) (log2 ratio difference); higher = more soluble in mitosis
[4] = cell cycle stage: early G1 (4.5 h after nocodazole release)
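For solubility change mitosis vs G1/S (difference of NP-40 vs SDS log2 ratios) in this document: synchronized HeLa Kyoto cells (double thymidine block for G1/S, nocodazole release for mitosis), protein amounts in NP-40 versus SDS lysates quantified by mass spectrometry, three biological replicates.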
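For solubility in G1/S (NP-40 vs SDS abundance) in this document: HeLa Kyoto cells arrested at G1/S by double thymidine block, proteins quantified by TMT10plex mass spectrometry in mild NP-40 versus SDS extracts, three biological replicates.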
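For thermal stability score vs G1/S (z-score of summed log2 fold changes over temperatures) in this document: synchronized HeLa Kyoto cells, proteins quantified by TMT10plex mass spectrometry, three biological replicates, mitosis taken 0.5 h after nocodazole release, G1/S directly after double thymidine block.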

## MDSQELKTLINYYCQERYFHHVLLVASEGIKRYGSDPVFRFYHAYGTLMEGKTQEALREFEAIKNKQDVSLCSLLALIYAHKMSPNPDREAILESDARVKEQRKGAGEKALYHAGLFLWHIGRHDKAREYIDRMIKISDGSKQGHVLKAWLDITRGKEPYTKKALKYFEEGLQDGNDTFALLGKAQCLEMRQNYSGALETVNQIIVNFPSFLPAFVKKMKLQLALQDWDQTVETAQRLLLQDSQNVEALRMQALYYVCREGDIEKASTKLENLGNTLDAMEPQNAQLFYNITLAFSRTCGRSQLILQKIQTLLERAFSLNPQQSEFATELGYQMILQGRVKEALKWYKTAMTLDETSVSALVGFIQCQLIEGQLQDADQQLEFLNEIQQSIGKSAELIYLHAVLAMKKNKRQEEVINLLNDVLDTHFSQLEGLPLGIQYFEKLNPDFLLEIVMEYLSFCPMQPASPGQPLCPLLRRCISVLETVVRTVPGLLQTVFLIAKVKYLSGDIEAAFNNLQHCLEHNPSYADAHLLLAQVYLSQEKVKLCSQSLELCLSYDFKVRDYPLYHLIKAQSQKKMGEIADAIKTLHMAMSLPGMKRIGASTKSKDRKTEVDTSHRLSIFLELIDVHRLNGEQHEATKVLQDAIHEFSGTSEEVRVTIANADLALAQGDIERALSILQNVTAEQPYFIEAREKMADIYLKHRKDKMLYITCFREIAERMANPRSFLLLGDAYMNILEPEEAIVAYEQALNQNPKDGTLASKMGKALIKTHNYSMAITYYEAALKTGQKNYLCYDLAELLLKLKWYDKAEKVLQHALAHEPVNELSALMEDGRCQVLLAKVYSKMEKLGDAITALQQARELQARVLKRVQMEQPDAVPAQKHLAAEICAEIAKHSVAQRDYEKAIKFYREALVHCETDNKIMLELARLYLAQDDPDSCLRQCALLLQSDQDNEAATMMMADLMFRKQDYEQAVFHLQQLLERKPDNYMTLSRLIDLLRRCGKLEDVPRFFSMAEKRNSRAKLEPGFQYCKGLYLWYTGEPNDALRHFNKARKDRDWGQNALYNMIEICLNPDNETVGGEVFENLDGDLGNSTEKQESVQLAVRTAEKLLKELKPQTVQGHVQLRIMENYCLMATKQKSNVEQALNTFTEIAASEKEHIPALLGMATAYMILKQTPRARNQLKRIAKMNWNAIDAEEFEKSWLLLADIYIQSAKYDMAEDLLKRCLRHNRSCCKAYEYMGYIMEKEQAYTDAALNYEMAWKYSNRTNPAVGYKLAFNYLKAKRYVDSIDICHQVLEAHPTYPKIRKDILDKARASLRP [TTC21B]
HeLa Kyoto [1]
  solubility in G1/S (log2): -0.116
HeLa Kyoto [2]; [4]
  thermal stability score: 1.06
HeLa Kyoto [2]; cell cycle stage: mitosis
  thermal stability score: 0.205
HeLa Kyoto [3]
  solubility change mitosis (log2): -0.211

## MAASRLELNLVRLLSRCEAMAAEKRDPDEWRLEKYVGALEDMLQALKVHASKPASEVINEYSWKVDFLKGMLQAEKLTSSSEKALANQFLAPGRVPTTARERVPATKTVHLQSRARYTSEMRSELLGTDSAEPEMDVRKRTGVAGSQPVSEKQLAAELDLVLQRHQNLQEKLAEEMLGLARSLKTNTLAAQSVIKKDNQTLSHSLKMADQNLEKLKTESERLEQHTQKSVNWLLWAMLIIVCFIFISMILFIRIMPKLK [USE1]
HeLa Kyoto [1]
  solubility in G1/S (log2): 0.00595
HeLa Kyoto [2]; [4]
  thermal stability score: 0.334
HeLa Kyoto [2]; cell cycle stage: mitosis
  thermal stability score: 0.48
HeLa Kyoto [3]
  solubility change mitosis (log2): -0.0501

## MLVGQGAGLLGPAVVTAAVVLLLSGVGPAHGSEDIVVGCGGFVKSDVEINYSLIEIKLYTKHGTLKYQTDCAPNNGYFMIPLYDKGDFILKIEPPLGWSFEPTTVELHVDGVSDICTKGGDINFVFTGFSVNGKVLSKGQPLGPAGVQVSLRNTGTEAKIQSTVTQPGGKFAFFKVLPGDYEILATHPTWALKEASTTVRVTNSNANAASPLIVAGYNVSGSVRSDGEPMKGVKFLLFSSLVTKEDVLGCNVSPVPGFQPQDESLVYLCYTVSREDGSFSFYSLPSGGYTVIPFYRGERITFDVAPSRLDFTVEHDSLKIEPVFHVMGFSVTGRVLNGPEGDGVPEAVVTLNNQIKVKTKADGSFRLENITTGTYTIHAQKEHLYFETVTIKIAPNTPQLADIVATGFSVCGRISIIRFPDTVKQMNKYKVVLSSQDKDKSLVTVETDAHGSFCFKAKPGTYKVQVMVPEAETRAGLTLKPQTFPLTVTDRPVMDVAFVQFLASVSGKVSCLDTCGDLLVTLQSLSRQGEKRSLQLSGKVNAMTFTFDNVLPGKYKISIMHEDWCWKNKSLEVEVLEDDVSAVEFRQTGYMLRCSLSHAITLEFYQDGNGRENVGIYNLSKGVNRFCLSKPGVYKVTPRSCHRFEQAFYTYDTSSPSILTLTAIRHHVLGTITTDKMMDVTVTIKSSIDSEPALVLGPLKSVQELRREQQLAEIEARRQEREKNGNEEGEERMTKPPVQEMVDELQGPFSYDFSYWARSGEKITVTPSSKELLFYPPSMEAVVSGESCPGKLIEIHGKAGLFLEGQIHPELEGVEIVISEKGASSPLITVFTDDKGAYSVGPLHSDLEYTVTSQKEGYVLTAVEGTIGDFKAYALAGVSFEIKAEDDQPLPGVLLSLSGGLFRSNLLTQDNGILTFSNLSPGQYYFKPMMKEFRFEPSSQMIEVQEGQNLKITITGYRTAYSCYGTVSSLNGEPEQGVAMEAVGQNDCSIYGEDTVTDEEGKFRLRGLLPGCVYHVQLKAEGNDHIERALPHHRVIEVGNNDIDDVNIIVFRQINQFDLSGNVITSSEYLPTLWVKLYKSENLDNPIQTVSLGQSLFFHFPPLLRDGENYVVLLDSTLPRSQYDYILPQVSFTAVGYHKHITLIFNPTRKLPEQDIAQGSYIALPLTLLVLLAGYNHDKLIPLLLQLTSRLQGVGALGQAASDNSGPEDAKRQAKKQKTRRTLRLQEEFQLMWCLVPWRGTLGIHLFSSLPFASEILLETTATCIHY [NOMO2]
HeLa Kyoto [1]
  solubility in G1/S (log2): -0.0617
HeLa Kyoto [2]; [4]
  thermal stability score: -0.17
HeLa Kyoto [2]; cell cycle stage: mitosis
  thermal stability score: -0.401
HeLa Kyoto [3]
  solubility change mitosis (log2): -0.136

## MVDRLANSEANTRRISIVENCFGAAGQPLTIPGRVLIGEGVLTKLCRKKPKARQFFLFNDILVYGNIVIQKKKYNKQHIIPLENVTIDSIKDEGDLRNGWLIKTPTKSFAVYAATATEKSEWMNHINKCVTDLLSKSGKTPSNEHAAVWVPDSEATVCMRCQKAKFTPVNRRHHCRKCGFVVCGPCSEKRFLLPSQSSKPVRICDFCYDLLSAGDMATCQPARSDSYSQSLKSPLNDMSDDDDDDDSSD [PLEKHF2]
HeLa Kyoto [1]
  solubility in G1/S (log2): 0.163
HeLa Kyoto [2]; [4]
  thermal stability score: 0.212
HeLa Kyoto [2]; cell cycle stage: mitosis
  thermal stability score: 0.829
HeLa Kyoto [3]
  solubility change mitosis (log2): -0.0311

## URB2
HeLa Kyoto [1]
  solubility in G1/S (log2): -1.43
HeLa Kyoto [2]; [4]
  thermal stability score: 1.35
HeLa Kyoto [2]; cell cycle stage: mitosis
  thermal stability score: 1.43
HeLa Kyoto [3]
  solubility change mitosis (log2): 0.744

## MRGKTFRFEMQRDLVSFPLSPAVRVKLVSAGFQTAEELLEVKPSELSKEVGISKAEALETLQIIRRECLTNKPRYAGTSESHKKCTALELLEQEHTQGFIITFCSALDDILGGGVPLMKTTEICGAPGVGKTQLCMQLAVDVQIPECFGGVAGEAVFIDTEGSFMVDRVVDLATACIQHLQLIAEKHKGEEHRKALEDFTLDNILSHIYYFRCRDYTELLAQVYLLPDFLSEHSKVRLVIVDGIAFPFRHDLDDLSLRTRLLNGLAQQMISLANNHRLAVILTNQMTTKIDRNQALLVPALGESWGHAATIRLIFHWDRKQRLATLYKSPSQKECTVLFQIKPQGFRDTVVTSACSLQTEGSLSTRKRSRDPEEEL [RAD51C]
HeLa Kyoto [1]
  solubility in G1/S (log2): 0.00866
HeLa Kyoto [2]; [4]
  thermal stability score: -0.288
HeLa Kyoto [2]; cell cycle stage: mitosis
  thermal stability score: -0.541
HeLa Kyoto [3]
  solubility change mitosis (log2): 0.0331

## MASAAVESFVTKQLDLLELERDAEVEERRSWQENISLKELQSRGVCLLKLQVSSQRTGLYGRLLVTFEPRRYGSAAALPSNSFTSGDIVGLYDAANEGSQLATGILTRVTQKSVTVAFDESHDFQLSLDRENSYRLLKLANDVTYRRLKKALIALKKYHSGPASSLIEVLFGRSAPSPASEIHPLTFFNTCLDTSQKEAVLFALSQKELAIIHGPPGTGKTTTVVEIILQAVKQGLKVLCCAPSNIAVDNLVERLALCKQRILRLGHPARLLESIQQHSLDAVLARSDSAQIVADIRKDIDQVFVKNKKTQDKREKSNFRNEIKLLRKELKEREEAAMLESLTSANVVLATNTGASADGPLKLLPESYFDVVVIDECAQALEASCWIPLLKARKCILAGDHKQLPPTTVSHKAALAGLSLSLMERLAEEYGARVVRTLTVQYRMHQAIMRWASDTMYLGQLTAHSSVARHLLRDLPGVAATEETGVPLLLVDTAGCGLFELEEEDEQSKGNPGEVRLVSLHIQALVDAGVPARDIAVVSPYNLQVDLLRQSLVHRHPELEIKSVDGFQGREKEAVILSFVRSNRKGEVGFLAEDRRINVAVTRARRHVAVICDSRTVNNHAFLKTLVEYFTQHGEVRTAFEYLDDIVPENYSHENSQGSSHAATKPQGPATSTRTGSQRQEGGQEAAAPARQGRKKPAGKSLASEAPSQPSLNGGSPEGVESQDGVDHFRAMIVEFMASKKMQLEFPPSLNSHDRLRVHQIAEEHGLRHDSSGEGKRRFITVSKRAPRPRAALGPPAGTGGPAPLQPVPPTPAQTEQPPREQRGPDQPDLRTLHLERLQRVRSAQGQPASKEQQASGQQKLPEKKKKKAKGHPATDLPTEEDFEALVSAAVKADNTCGFAKCTAGVTTLGQFCQLCSRRYCLSHHLPEIHGCGERARAHARQRISREGVLYAGSGTKNGSLDPAKRAQLQRRLDKKLSELSNQRTSRRKERGT [IGHMBP2]
HeLa Kyoto [1]
  solubility in G1/S (log2): -0.73
HeLa Kyoto [2]; [4]
  thermal stability score: 0.859
HeLa Kyoto [2]; cell cycle stage: mitosis
  thermal stability score: 0.156
HeLa Kyoto [3]
  solubility change mitosis (log2): 0.296

## TACC1
HeLa Kyoto [1]
  solubility in G1/S (log2): 0.335
HeLa Kyoto [2]; [4]
  thermal stability score: -4.04
HeLa Kyoto [2]; cell cycle stage: mitosis
  thermal stability score: -4.77
HeLa Kyoto [3]
  solubility change mitosis (log2): -0.0581

## KIAA0430
HeLa Kyoto [1]
  solubility in G1/S (log2): -0.0573
HeLa Kyoto [2]; [4]
  thermal stability score: -0.446
HeLa Kyoto [2]; cell cycle stage: mitosis
  thermal stability score: -0.799
HeLa Kyoto [3]
  solubility change mitosis (log2): 0.0372

## MPLELTQSRVQKIWVPVDHRPSLPRSCGPKLTNSPTVIVMVGLPARGKTYISKKLTRYLNWIGVPTKVFNVGEYRREAVKQYSSYNFFRPDNEEAMKVRKQCALAALRDVKSYLAKEGGQIAVFDATNTTRERRHMILHFAKENDFKAFFIESVCDDPTVVASNIMEVKISSPDYKDCNSAEAMDDFMKRISCYEASYQPLDPDKCDRDLSLIKVIDVGRRFLVNRVQDHIQSRIVYYLMNIHVQPRTIYLCRHGENEHNLQGRIGGDSGLSSRGKKFASALSKFVEEQNLKDLRVWTSQLKSTIQTAEALRLPYEQWKALNEIDAGVCEELTYEEIRDTYPEEYALREQDKYYYRYPTGESYQDLVQRLEPVIMELERQENVLVICHQAVLRCLLAYFLDKSAEEMPYLKCPLHTVLKLTPVAYGCRVESIYLNVESVCTHRERSEDAKKGPNPLMRRNSVTPLASPEPTKKPRINSFEEHVASTSAALPSCLPPEVPTQLPGQNMKGSRSSADSSRKH [PFKFB3]
HeLa Kyoto [1]
  solubility in G1/S (log2): 0.239
HeLa Kyoto [2]; [4]
  thermal stability score: 2.73
HeLa Kyoto [2]; cell cycle stage: mitosis
  thermal stability score: 0.713
HeLa Kyoto [3]
  solubility change mitosis (log2): -0.103

## SVIL
HeLa Kyoto [1]
  solubility in G1/S (log2): -1.65
HeLa Kyoto [2]; [4]
  thermal stability score: -0.947
HeLa Kyoto [2]; cell cycle stage: mitosis
  thermal stability score: 0.478
HeLa Kyoto [3]
  solubility change mitosis (log2): 0.176

## MFSVLSYGRLVARAVLGGLSQTDPRAGGGGGGDYGLVTAGCGFGKDFRKGLLKKGACYGDDACFVARHRSADVLGVADGVGGWRDYGVDPSQFSGTLMRTCERLVKEGRFVPSNPIGILTTSYCELLQNKVPLLGSSTACIVVLDRTSHRLHTANLGDSGFLVVRGGEVVHRSDEQQHYFNTPFQLSIAPPEAEGVVLSDSPDAADSTSFDVQLGDIILTATDGLFDNMPDYMILQELKKLKNSNYESIQQTARSIAEQAHELAYDPNYMSPFAQFACDNGLNVRGGKPDDITVLLSIVAEYTD [PPTC7]
HeLa Kyoto [1]
  solubility in G1/S (log2): -0.0546
HeLa Kyoto [2]; [4]
  thermal stability score: -1.55
HeLa Kyoto [2]; cell cycle stage: mitosis
  thermal stability score: -0.178
HeLa Kyoto [3]
  solubility change mitosis (log2): -0.0876
